The test deals with T1, fibrin clots (Homo sapiens, UniProt P02671+P02675+P02679).
T1 sequence (P02671 36-866 limits assumed): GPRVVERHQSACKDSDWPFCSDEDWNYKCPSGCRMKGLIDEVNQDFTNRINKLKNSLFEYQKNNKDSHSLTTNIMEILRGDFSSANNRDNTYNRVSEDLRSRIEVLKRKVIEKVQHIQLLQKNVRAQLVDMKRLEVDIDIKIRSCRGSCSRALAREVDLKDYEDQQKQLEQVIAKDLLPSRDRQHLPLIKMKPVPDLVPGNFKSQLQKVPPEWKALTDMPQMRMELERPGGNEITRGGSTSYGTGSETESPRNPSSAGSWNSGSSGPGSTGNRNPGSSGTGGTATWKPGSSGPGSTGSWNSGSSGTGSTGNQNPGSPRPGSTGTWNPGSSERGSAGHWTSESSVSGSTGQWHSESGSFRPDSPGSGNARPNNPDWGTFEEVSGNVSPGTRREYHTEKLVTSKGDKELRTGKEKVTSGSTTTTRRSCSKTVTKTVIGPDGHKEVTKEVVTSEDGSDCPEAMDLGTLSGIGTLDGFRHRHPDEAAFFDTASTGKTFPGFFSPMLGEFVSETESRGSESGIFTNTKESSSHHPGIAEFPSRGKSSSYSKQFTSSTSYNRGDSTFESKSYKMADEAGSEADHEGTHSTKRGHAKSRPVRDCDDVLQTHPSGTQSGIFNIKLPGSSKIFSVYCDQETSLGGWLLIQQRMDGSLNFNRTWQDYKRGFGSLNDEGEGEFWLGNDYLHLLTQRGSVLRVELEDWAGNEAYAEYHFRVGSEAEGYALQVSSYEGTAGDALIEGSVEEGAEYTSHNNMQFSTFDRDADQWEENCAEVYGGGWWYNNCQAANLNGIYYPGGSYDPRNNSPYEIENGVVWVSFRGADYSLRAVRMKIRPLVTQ
T1 sequence (P02675 45-491 limits assumed): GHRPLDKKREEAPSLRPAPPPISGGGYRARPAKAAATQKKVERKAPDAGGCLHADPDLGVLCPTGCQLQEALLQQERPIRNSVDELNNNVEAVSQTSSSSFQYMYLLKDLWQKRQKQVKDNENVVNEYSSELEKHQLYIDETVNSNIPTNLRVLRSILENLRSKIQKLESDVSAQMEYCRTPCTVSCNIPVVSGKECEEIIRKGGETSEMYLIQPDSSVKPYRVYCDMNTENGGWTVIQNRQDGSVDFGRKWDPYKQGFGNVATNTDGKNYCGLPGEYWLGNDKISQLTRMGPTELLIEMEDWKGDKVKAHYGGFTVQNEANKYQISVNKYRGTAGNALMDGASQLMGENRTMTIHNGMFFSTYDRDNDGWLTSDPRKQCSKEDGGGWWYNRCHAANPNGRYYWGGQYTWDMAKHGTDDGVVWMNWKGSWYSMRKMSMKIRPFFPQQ
T1 sequence (P02679 27-453): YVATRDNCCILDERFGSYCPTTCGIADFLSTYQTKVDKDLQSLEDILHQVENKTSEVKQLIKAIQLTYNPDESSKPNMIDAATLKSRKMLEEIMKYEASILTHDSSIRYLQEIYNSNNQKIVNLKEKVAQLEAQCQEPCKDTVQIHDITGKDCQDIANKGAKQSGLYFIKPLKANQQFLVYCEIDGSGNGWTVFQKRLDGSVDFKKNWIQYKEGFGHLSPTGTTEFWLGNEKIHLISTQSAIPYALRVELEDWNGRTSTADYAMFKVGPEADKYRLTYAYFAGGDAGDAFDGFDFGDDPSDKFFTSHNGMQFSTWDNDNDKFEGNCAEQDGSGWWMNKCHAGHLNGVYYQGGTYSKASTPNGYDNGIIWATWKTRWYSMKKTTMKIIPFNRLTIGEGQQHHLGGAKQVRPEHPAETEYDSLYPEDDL
Kind of test: Clot polymerization/degradation assay (thrombin, tPA, plasminogen; turbidity). The format is biochemical. Particulars: versus control clots or clots with S11-ULC microgels. On the procedure: Thrombin-initiated fibrin polymerization and degradation assays were used to evaluate clotting rates and persistence in the presence of H6 and S11 (control) ULC microgels at different microgel and fibrinogen concentrations. Competing polymerization and degradation reactions were created with a 96 well plate, and a final volume of 100 μL per well. Two solutions were made, a fibrinogen-microgel solution that was loaded initially, and a thrombin-tPA (tissue Plasminogen Activator)-plasminogen solution that was added in a 1:1 volume ratio. Final concentrations in each well were 2 mg/mL microgel and 2 mg/mL of fibrinogen, 5 mMol Ca^+, 0.25 U/mL of human thrombin (Enzyme Research Laboratories, Inc., South Bend, Ind.), 0.29 μg/mL of tissue Plasminogen Activator(tPA), and 10.8 μg/mL of Plasminogen. The remainder of the volume in the thrombin/tPA/plasminogen solution was made up of 25 mM Hepes, 150 mM NaCl buffer. Turbidity curves were be generated from absorbance measurements (SpectraMax M2 Microplate Reader, Molecular Devices, Sunnyvale, Calif.) at 350 nm, with reads taken every thirty seconds.

B1: PLPs: ultra-low crosslinked pNIPAm-AAc microgels conjugated to fibrin-specific sdFv H6 (conjugate)
VH: QVQLLESGGGLVQPGGSLRLSCAASGDRFTHNDMGWVRQAPGKGLEWVSTIPTTDGSTYYADSVKGRFTISRDNSKSTLYLQMNSLRAEDTAVYYCATGYMWKAPAYVKYWGQGTLVTVSSAAAEQKLISEEDLNSAAHYTDIG
In the case of B1, the clot degradation entry is recorded as “more resistant to degradation”.

The values are drawn from patent US11419948B2, “Functionalized microgels with fibrin binding elements” (Georgia Tech Research Corporation, priority 2013, dated 2022).
